Results from the Human Domainome abundance scans (Beltran et al. 2025).
± gives the uncertainty stated by the source.

B1: Membrane-associated guanylate kinase, WW and PDZ domain-containing protein 3, residues 287 to 329; numbered along this chain, Q5TCQ9 (parent)
chain: MRDETLEPLPKNWEMAYTDTGMIYFIDHNTKTTTWLDPRLCKK

Variants of: B1
Assay: abundance fitness (aPCA) (normalised: wild type 0, dead -1); higher = more abundant; growth selection in yeast, the domain comes from the species named
Settings: Homo sapiens

Variant	abundance fitness
D27N	-0.238 ± 0.32
D27W	-1.07 ± 0.094
D27V	-1.01 ± 0.062
D19Q	-0.055 ± 0.079
D19R	-0.091 ± 0.045
D19C	-0.122 ± 0.054
D19E	-0.001 ± 0.039
D19A	-0.047 ± 0.033
D19T	-0.067 ± 0.044
D19S	-0.019 ± 0.035
D19I	-0.536 ± 0.15
D19P	-0.07 ± 0.052
D19K	-0.034 ± 0.053
D19Y	-0.173 ± 0.22
T18E	-0.389 ± 0.038
T18R	-0.7 ± 0.035
T18W	-0.676 ± 0.054
T18N	-0.391 ± 0.46
T18C	-0.223 ± 0.097
T18Q	-0.624 ± 0.13
T18G	-0.244 ± 0.029
T18A	-0.151 ± 0.035
T18L	-0.471 ± 0.063
T18S	-0.128 ± 0.044

Variant	abundance fitness
T18P	-1.03 ± 0.13
T18M	-0.335 ± 0.044
T18K	-0.539 ± 0.23
K31H	0.018 ± 0.078
K31W	-0.278 ± 0.036
K31Q	-0.004 ± 0.044
K31Y	-0.369 ± 0.057
K31E	-0.035 ± 0.032
K31V	-0.385 ± 0.033
K31M	-0.071 ± 0.039
K31C	-0.09 ± 0.042
K31G	-0.09 ± 0.029
K31I	-0.674 ± 0.45
K31R	-0.017 ± 0.03
K31L	-0.182 ± 0.033
K31P	-0.812 ± 0.075
K31N	-0.159 ± 0.094
K31D	-0.205 ± 0.043
K31T	-0.214 ± 0.042
K11F	-0.21 ± 0.11
K11E	0.024 ± 0.033
K11I	-0.271 ± 0.069
K11T	-0.068 ± 0.043
K11M	-0.161 ± 0.045

Variant	abundance fitness
K11D	-0.092 ± 0.086
K11V	-0.109 ± 0.037
K11C	-0.137 ± 0.039
K11Q	-0.041 ± 0.044
K11R	-0.049 ± 0.03
K11S	-0.068 ± 0.034
K11H	-0.08 ± 0.037
K11P	0.007 ± 0.049
K11N	-0.118 ± 0.093
K11A	-0.033 ± 0.039
K11L	-0.08 ± 0.038
N29M	-0.142 ± 0.046
N29P	-0.525 ± 0.095
N29G	-0.069 ± 0.027
N29K	-0.105 ± 0.046
N29A	-0.074 ± 0.031
N29S	-0.103 ± 0.036
N29R	-0.078 ± 0.027
N29V	-0.094 ± 0.033
N29F	-0.152 ± 0.074
N29T	-0.051 ± 0.039
N29C	-0.132 ± 0.04
N29E	-0.03 ± 0.035
N29D	-0.141 ± 0.059

Variant	abundance fitness
N29H	-0.248 ± 0.14
N29Q	-0.089 ± 0.036
N29I	-0.194 ± 0.059
A16K	-0.067 ± 0.055
A16L	-0.297 ± 0.04
A16H	-0.514 ± 0.092
A16Q	-0.15 ± 0.039
A16P	-0.914 ± 0.063
A16V	-0.193 ± 0.042
A16D	-0.257 ± 0.042
A16M	-0.36 ± 0.058
A16E	-0.278 ± 0.04
A16G	-0.149 ± 0.031
A16R	-0.076 ± 0.032
A16N	-0.318 ± 0.086
M15F	-0.189 ± 0.036
M15R	-0.013 ± 0.034
M15V	-0.093 ± 0.035
M15E	-0.062 ± 0.051
M15H	-0.156 ± 0.062
M15L	-0.066 ± 0.035
M15G	-0.334 ± 0.034
M15W	-0.283 ± 0.053
M15Y	-0.186 ± 0.051

Variant	abundance fitness
M15Q	-0.007 ± 0.035
M15K	-0.037 ± 0.05
M15P	-0.11 ± 0.079
M15I	0.036 ± 0.24
M15C	-0.097 ± 0.053
M15S	-0.047 ± 0.042
M15A	-0.043 ± 0.038
M15D	-0.379 ± 0.041
M15T	-0.039 ± 0.051
I23N	-0.12 ± 0.058
I23D	-0.32 ± 0.1
I23P	-0.001 ± 0.064
I23V	0.03 ± 0.035
I23T	-0.006 ± 0.042
I23C	0.002 ± 0.034
I23F	-0.162 ± 0.098
I23S	-0.068 ± 0.04
I23G	-0.087 ± 0.028
I23L	-0.01 ± 0.029
I23Q	0.042 ± 0.044
I23A	0.053 ± 0.032
I23M	-0.006 ± 0.047
I23W	-0.277 ± 0.05
I23E	0.028 ± 0.034

Variant	abundance fitness
N12E	-0.22 ± 0.049
N12H	-0.185 ± 0.08
N12L	-0.247 ± 0.035
N12Q	-0.237 ± 0.046
N12C	-0.257 ± 0.14
N12P	-0.383 ± 0.054
N12T	-0.438 ± 0.073
N12A	-0.191 ± 0.034
N12V	-0.89 ± 0.071
N12R	-0.215 ± 0.033
N12W	-0.412 ± 0.045
N12D	-0.081 ± 0.039
N12S	-0.213 ± 0.038
N12G	0.018 ± 0.032
N12K	-0.155 ± 0.044
N12F	-0.198 ± 0.049
N12M	-0.229 ± 0.06
N12I	-0.96 ± 0.11
G21P	-0.682 ± 0.081
G21R	-0.237 ± 0.033
G21W	-0.782 ± 0.068
G21L	-0.67 ± 0.036
G21S	-0.487 ± 0.066
G21V	-1.18 ± 0.077

Variant	abundance fitness
G21M	-0.46 ± 0.067
G21D	-0.241 ± 0.091
G21E	-0.215 ± 0.039
G21K	-0.172 ± 0.066
G21A	-0.312 ± 0.036
G21T	-0.689 ± 0.061
G21Q	-0.222 ± 0.059
E14W	-0.834 ± 0.056
E14R	-0.273 ± 0.035
E14S	-0.12 ± 0.033
E14V	-0.346 ± 0.043
E14H	-0.429 ± 0.066
E14M	-0.346 ± 0.042
E14L	-0.456 ± 0.095
E14G	-0.224 ± 0.029
E14N	-0.372 ± 0.065
E14P	-0.868 ± 0.064
E14I	-0.39 ± 0.066
E14A	-0.132 ± 0.042
E14F	-1.06 ± 0.27
E14Q	-0.087 ± 0.051
E14K	-0.262 ± 0.036
E14Y	-0.368 ± 0.12
